Laboratory results: US6534640B1, “Methods and compositions to alter the cell surface expression of phosphatidylserine and other clot-promoting plasma membrane phospholipids” (Blood Center Research Foundation, priority 1996, dated 2003)
Substitutions are numbered along the chain they refer to.

Legend:
[1] = tested on: human cell lines (Raji, HL60, Dami, HEL, W9, Jurkat, Molt-4, K562); assay: Measurement of cell surface PS (FVa light chain binding, flow cytometry) in human cell lines after calcium ionophore; assay type: cell-based; conditions: 2 μM A23187, 1.2 mM free Ca2+
Experimental: Measurement of cell surface PS. Calcium ionophore-induced exposure of PS on the surface of all cell lines analyzed was detected by the specific binding of coagulation factor Va (light chain) as previously described (P. J. Sims, et al., J. Biol. Chem. 263:18205-18212, 1988; H. Kojima, et al., J. Clin. Invest. 94:2237-2243, 1994). Briefly, cells were washed twice to remove serum proteins and suspended (2×10^6 cells/ml) at 37° C. in RPMI 1640 supplemented with 0.1% BSA, 20 mM HEPES, and adjusted to 1.2 mM free [Ca^2+]. At time=0 A231.87 (0 or 2 μM final concentration) was added from 1 mM stock solution in DMSO, and at times indicated in figure legends, the reaction was stopped by addition of 6 mM EGTA. PS exposed on the cell surface at each time point was detected by incubating (10 minutes, room temperature) 50 μl of the cell suspension with […] FVa, followed by 10 μg/ml anti-FVa, to detect the cell-bound FVa light chain. After staining with 10 μg/ml Tri-Color conjugated goat anti-mouse IgG (CALTAG Laboratories, Burlingame, Calif.), single-cell fluorescence was quantitated by flow cytometry (FL3 channel, FACScan, Becton Dickinson Immunocytometry Systems). Use of Tri-Color conjugate to detect cell-bound FVa enabled simultaneous measurement of cell-associated GFP fluorescence in cell lines transformed with the pEGFP-C2 expression plasmid (fluorescence of GFP detected in FL1 channel). In experiments in which cell lysis was monitored by uptake of propidium iodide, cells were stained for bound FVa with FITC-conjugate of goat anti-mouse IgG (FL1 channel) substituting for Tri-Color conjugate, and propidium iodide was detected in FL3 channel. Propidium iodide (0.5 μg/ml) was added immediately before dilution for flow cytometry.
FIG. 8 depicts western blot analysis of PL scramblase in various human cell lines. Constitutive expression of PL scramblase was analyzed in the human cell lines indicated. […] At times shown (abscissa), EGTA was added and cells analyzed for surface exposed PS as detected by cell-bound FVa light chain (see Materials and Methods). […]

human PL scramblase = assay: PL scramblase activity: Ca2+-dependent transbilayer movement of NBD-PC in reconstituted PC/PS proteoliposomes; assay type: biochemical; conditions: for apparent avidity for Ca2+ of mutant human PL scramblase: activity as function of external free [Ca2+]; for PL scramblase function of Ala-substituted mutants of the EF-hand loop vs wild type: mutant human PL scramblase, 2 mM CaCl2
Experimental: Reconstitution of PL scramblase or scramblase fusion protein into proteoliposomes. Reconstitution and functional activity were performed essentially as previously described (F. Bassé, et al., J. Biol. Chem. 271:17205-17210, 1996; J. G. Stout, et al., J. Clin. Invest. 99:2232-2238, 1997). Briefly, a mixture of PC and PS (9:1 molar ratio) was dried under a stream of nitrogen and resuspended in 100 mM Tris, 100 mM KCl, 0.1 mM EGTA, pH 7.4 (Tris buffer). Protein samples to be reconstituted were added to the liposomes at a final lipid concentration of 4 mg/ml in the presence of 60 mM OG, and dialyzed overnight at 4° C. against 200 vol of Tris buffer containing 1 g/L Bio-Beads SM-2. To liberate PL scramblase from MBP, the proteoliposomes were incubated 3 h at room temperature in the presence of 1/40 (w/w) factor Xa. The digestion was terminated by addition of 100 μM Glu-Gly-Arg chloromethyl ketone. Completeness of the digest was monitored by SDS-PAGE. Following dialysis, the proteoliposomes were labeled in the outer leaflet by addition of 0.25 mol % fluorescent NBD-PC (in dimethyl sulfoxide, final solvent concentration 0.25%).
PL Scramblase activity. Scramblase activity was measured as previously described (F. Bassé, et al., supra, 1996; J. G. Stout, et al., supra, 1997 and in U.S. Ser. No. 08/790,186). Routinely, proteoliposomes labeled with NBD-PC were incubated for 2 hours at 37° C. in Tris buffer in the presence or absence of 2 mM CaCl2. Proteoliposomes were diluted 25-fold in Tris buffer containing 4 mM EGTA and transferred to a stirred fluorescence cuvet at 23° C. Initial fluorescence was recorded (SLM Aminco 8000 spectrof luorimeter; excitation at 470 nm, emission at 532 nm), 20 mM dithionite was added, and the fluorescence continuously monitored for a total of 120 seconds. The difference in non-quenchable fluorescence observed in presence vs. absence of CaCl2 Was attributed to Ca^2+-induced change in NBD-PC located in the outer leaflet (F. Bassé, et al., supra, 1996; J. G. Stout, et al., supra, 1997; J. C. McIntyre and R.G. Sleight, Biochemistry 30:11819-11827, 1991). Ionized [Ca^2+] was calculated using FreeCal version 4.0 software (generously provided by Dr. Lawrence F. Brass, University of Pennsylvania, Philadelphia, Pa.).
(§1) Reconstitution and Functional Activity of PL Scramblase: Reconstitution, removal of MBP, and functional assay of PL scramblase were performed as previously described (F. Bassé, et al., J. Biol. Chem. 271:17205-17210, 1996; Q. Zhou, et al., supra, 1997; J. G. Stout, et al., J. Clin. Invest. 99:2232-2238, 1997). Routinely, 420 pmoles of protein were reconstituted with 1 μmol of PL. To remove MBP, proteoliposomes were incubated 3 hours at room temperature with 1/40 (w/w) factor Xa. The digest was terminated by addition of 100 μM Glu-Gly-Arg chloromethyl ketone. Proteoliposomes labeled with NBD-PC were incubated for 2 hours at 37° C. in Tris buffer in the presence or absence of CaCl2 as indicated in figure legends and diluted 25-fold in Tris buffer containing 4 mM EGTA. Initial fluorescence was recorded (SLM Aminco 8000 spectrofluorimeter; excitation at 470 nm, emission at 532 nm), 20 mM dithionite was added, and the fluorescence was continuously monitored for a total of 120 seconds. Scramblase activity was calculated according to the difference in non-quenchable fluorescence observed in presence vs absence of CaCl2. Ionized [Ca^2+] was calculated using FreeCal version 4.0 software (generously provided by Dr. Lawrence F. Brass, University of Pennsylvania, Philadelphia, Pa.).
Mutagenesis of PL Scramblase: Human PL scramblase amino acid residues in EF-hand Ca^2+-binding motif at positions of Asp^273, Asp^275, Phe^277, Ile^279, Phe^281 and Asp^284 were mutated to Ala with oligonucleotide-directed mutagenesis by two rounds of PCR. […]

mouse PL scramblase = target: T1, mouse PL scramblase (Mus musculus, UniProt Q9DCW2); assay: PL scramblase activity of recombinant mouse protein in reconstituted PC/PS proteoliposomes; assay type: biochemical; conditions: 420 pmoles protein, 1 μmol PL
T1 construct: made in house; host or cells: E. coli TB1 (pMAL-C2)
T1 sequence (Q9DCW2 1-307): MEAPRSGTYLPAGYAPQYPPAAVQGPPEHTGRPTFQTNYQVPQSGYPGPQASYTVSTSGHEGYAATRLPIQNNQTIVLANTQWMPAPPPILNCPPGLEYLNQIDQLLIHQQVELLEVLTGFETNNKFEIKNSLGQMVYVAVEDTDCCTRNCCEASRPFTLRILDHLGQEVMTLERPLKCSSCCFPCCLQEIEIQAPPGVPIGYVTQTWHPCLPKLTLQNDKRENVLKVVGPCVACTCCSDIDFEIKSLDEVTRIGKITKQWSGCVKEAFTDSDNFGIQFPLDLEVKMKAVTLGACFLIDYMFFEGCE
Experimental: Expression and Purification of Mouse PL Scramblase-MBP Fusion Protein: Mouse PL scramblase was expressed as fusion protein with MBP in E. coli TB1 and purified on amylose resin as previously described for human PL scramblase (Q. Zhou, et al., J. Biol. Chem. 272:18240-18244, 1997). The purified fusion protein was centrifuged at 106,000×g for 1 hour at 4° C. to remove aggregated protein.
as §1
Functional Activity of Recombinant Mouse PL Scramblase. In order to confirm that the cDNA identified as mouse PL scramblase encodes a protein of similar function to that identified in human, the human and mouse proteins were each expressed in E. coli, purified, and reconstituted in proteoliposomes for measurement of PL mobilizing activity. Mouse or human PL scramblase-MBP fusion protein (420 pmoles) was reconstituted into PC/PS liposomes (1 μmol total PL), respectively, MBP was removed by digestion of the proteoliposomes with factor Xa, and PL scramblase activity was determined as described under “Experimental Procedures” and plotted as a function of external free [Ca^2+]. The results of this experiment indicate that recombinant mouse PL scramblase mediated a Ca^2+-dependent transbilayer movement of membrane PL with a specific activity and affinity for Ca^2+ indistinguishable from that observed for the recombinant human protein.

Molecule: CNc1ccc2oc(C[C@H]3O[C@@]4(CC[C@H]3C)O[C@H]([C@H](C)C(=O)c3ccc[nH]3)[C@H](C)C[C@H]4C)nc2c1C(=O)O [A23187]
- PS mobilized to the cell surface in response to calcium ionophore ([1]; HEL, W9 and Jurkat cells): notably robust responses
- PS mobilized to the cell surface in response to calcium ionophore ([1]; Molt-4 and K562 cells): intermediate responses
- PS mobilized to the cell surface in response to calcium ionophore ([1]; Raji, HL60 and Dami cells): notably unresponsive

B1: Asp275: Mutant human PL scramblase with Ala substitution at Asp275 (EF-hand loop position 3) (protein, UniProt O15162 1-318, looked up, variant D275A)
Phospholipid scramblase 1: MDKQNSQMNASHPETNLPVGYPPQYPPTAFQGPPGYSGYPGPQVSYPPPPAGHSGPGPAGFPVPNQPVYNQPVYNQPVGAAGVPWMPAPQPPLNCPPGLEYLSQIDQILIHQQIELLEVLTGFETNNKYEIKNSFGQRVYFAAEDTDCCTRNCCGPSRPFTLRIIDNMGQEVITLERPLRCSSCCCPCCLQEIEIQAPPGVPIGYVIQTWHPCLPKFTIQNEKREDVLKISGPCVVCSCCGDVDFEIKSLDEQCVVGKISKHWTGILREAFTDAANFGIQFPLDLDVKMKAVMIGACFLIDFMFFESTGSQEQKSGVW
- apparent avidity for Ca2+ of mutant human PL scramblase (human PL scramblase): significant reduction
- PL scramblase function of Ala-substituted mutants of the EF-hand loop vs wild type (human PL scramblase): complete inactivation

B2: Asp284: Mutant human PL scramblase with Ala substitution at Asp284 (EF-hand loop position 12) (protein, UniProt O15162 1-318, looked up, variant D284A)
Phospholipid scramblase 1: B1 Phospholipid scramblase 1 with A275D, D284A
- apparent avidity for Ca2+ of mutant human PL scramblase (human PL scramblase): significant reduction
- PL scramblase function of Ala-substituted mutants of the EF-hand loop vs wild type (human PL scramblase): partial loss of function

B3: Asp273: Mutant human PL scramblase with Ala substitution at Asp273 (EF-hand loop position 1) (protein, listed as Homo sapiens)
chain: B1 Phospholipid scramblase 1 with D273A, A275D
- apparent avidity for Ca2+ of mutant human PL scramblase (human PL scramblase): significant reduction
- PL scramblase function of Ala-substituted mutants of the EF-hand loop vs wild type (human PL scramblase): partial loss of function

B4: recombinant mouse PL scramblase: Recombinant murine PL scramblase (SEQ ID NO:4), 307 residues, expressed in E. coli (protein, listed as Mus musculus)
chain: T1 sequence (Q9DCW2 1-307) with Q168N, K178R, K221L, D242S, K256L, K259L, K266L
- affinity for Ca2+ compared with recombinant human protein (mouse PL scramblase): indistinguishable
- specific activity (Ca2+-dependent transbilayer movement of membrane PL) compared with recombinant human protein (mouse PL scramblase): indistinguishable
- affinity for Ca2+ compared with recombinant human protein (mouse PL scramblase; listed as murine PL scramblase): virtually the same
- specific activity (Ca2+-dependent transbilayer movement of membrane PL) compared with recombinant human protein (mouse PL scramblase; listed as murine PL scramblase): the same activity
